In general, solubility refers to the dissolved amount per volume that the medium holds. The term IC50 denotes the concentration at which inhibition is half-maximal.

Starred links: 1 amine or outer side, 2 acyl side, 3 side chain; linkers in the order of their positions; H or OH if unused. Positions of bridges follow the written chain, without caps; N, C: chain ends. Non-standard residues stand in square brackets, D forms with d. Residues, ends and D or L forms follow the SMILES beside them. Chains are numbered I, II in the order given. *: point of attachment. X3 = NCCOCCOCCNC(=O)CN1CCN(CC(=O)NCCOCCOCCN[*:1])CCN(CC(=O)NCCOCCOCCN)CCN(CC(=O)NCCOCCOCCN[*:2])CC1; X2 = CC(C)C[C@H](N[*:1])[C@H](O)CC(=O)[*:2]; Sta = CC(C)C[C@H](N)[C@@H](O)CC(=O)O; Isovaleryl = CC(C)CC(=O)*

Series [1] is described as follows: T1 of contrast agent in DPBS. Format: physicochemical. The following applies: 0.2 mM in DPBS. On the procedure: To explore the potential of cartilage targeting agents as practical MRI contrast agents for accurate diagnostic imaging, we investigated HHY-316Gd in vivo with healthy rats. As an essentially non-binding control, contrast agent HHY-341Gd (T1=1368±10 ms, 0.2 mM in DPBS) with the non-binding scrambled peptide sequence YRLGRW and acetylated amine groups was used as reference. MRI was performed using a 4.7 T Bruker BioSpec whole body MR imager. Male skeletally mature Lewis rats were anesthetized (by Isoflurane), fixed in supine position and both knees were placed within a transmitting/receiving wrist coil. […] In the HHY-316Gd applied knees there is a significant MRI signal enhancement of the articular and growth plate cartilages which consist principally of collagen II and proteoglycan. The signal intensity (SI) in the articular cartilage and growth plate increased 86% and 77% after 24 hours following administration of HHY-316Gd and increased 84% and 85% at 72 hours after intra-articular injection, respectively (FIGS. 6-11). […]
To assist histological examination of joint slices after termination of the study, we decided to co-administer a second probe, HHY-338 (T1=11493±27 ms, 0.2 mM in DPBS), containing a Cy5.5 moiety. […] Chondrophyte/osteophyte regions were examined in sections stained with safranin O/fast green and recorded using a Zeiss Miraxscan microscope (FIG. 12b).

Series [2] relates to pig articular cartilage explants. Kind of series: Ex vivo GAG release model with pig articular cartilage explants. The format is cell-based. The following applies: explants pre-incubated with 1 μM inhibitor 24 h, then washed.
Series [3] is described as follows: Solubility in phosphate buffer. The format is physicochemical. The following applies: phosphate buffer at pH 7.4; read-out: solubility.
The next series deals with T1, Cathepsin D (Homo sapiens, UniProt P07339).
T1 construct: purchased Biomol Se-199
T1 sequence (P07339 65-412): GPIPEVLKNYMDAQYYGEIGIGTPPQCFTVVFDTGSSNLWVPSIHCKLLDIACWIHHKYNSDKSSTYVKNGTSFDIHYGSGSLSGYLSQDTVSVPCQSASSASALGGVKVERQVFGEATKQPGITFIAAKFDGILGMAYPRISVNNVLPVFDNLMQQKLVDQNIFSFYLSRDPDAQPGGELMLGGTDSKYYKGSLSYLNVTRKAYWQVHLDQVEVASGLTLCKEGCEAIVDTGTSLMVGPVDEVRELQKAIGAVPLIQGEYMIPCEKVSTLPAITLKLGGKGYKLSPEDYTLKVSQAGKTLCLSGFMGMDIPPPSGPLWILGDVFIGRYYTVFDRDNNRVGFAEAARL
Briefly: Cathepsin D enzyme assay. Format: biochemical. On the procedure: For quantification of Cathepsin D inhibitory activity, an enzymatic assay was used that measures the turnover of a quenched, fluorescenctly-labeled, Cathepsin D-cleavable, peptide substrate over time.
Specifically, 13 ng of purified Cathepsin D enzyme (Biomol; Cat.No. Se-199) was administered per well of a 96 well plate, substance/inhibitor of interest was added and the mixture incubated for 10 min. at 37° C. Then, the enzymatic reaction was started by addition of fluorescenctly-labeled, Cathepsin D-Substrat ([…] (7-Methoxycoumarin-4-yl)-acetyl-Pro-Leu-Gly-Leu-(3 [2,4-dinitrophenyl]-L-2,3-diaminopropionyl)-Ala-Arg-NH2 (Bachem M-1895). The reaction volume amounts to 30 μl and contains 50 mM acetic acid, 200 mM NaCl and 0.003% Brij 35 and was adjusted to pH 4.5 with acetic acid. By cleavage of the peptide chain, the […] is released and the emission of fluorescence dye is measured using excitation/emission wavelengths ([…]) on a Tecan Spectrafluor Plus—instrument at 37° C. for 10 min. For the determination of the compound dose response, a 10 mM DMSO stock solution was diluted and tested in a ten-point, three-fold dilution series run in duplicate beginning at 30 μM final concentration. Data were analyzed using a four-parameter curve fit with a fixed minimum and maximum experimentally defined as the average positive and negative controls on each plate.

The nature of series [4]: Solubility in DMSO after lyophilization. The format is physicochemical. On the procedure:
1 equiv. […] DIPEA (10 λl, 60 μmol). The reaction mixture was stirred under argon at room temperature for 2 days. The solvent was directly purified by preparative HPLC to give HHY-328 (4.3 mg, Yield: 22.6%) as a white powder.

In series [1], AcWYRGRL-DOTA-Cy5.5-[Gd3+] [HHY-338] returned a T1 of 11493 ± 27 ms.

In series [1], AcYRLGRW-DOTA-[Gd3^+] [HHY-341Gd] had a T1 of 1368 ± 10 ms.

`CC(=O)N[C@@H](Cc1c[nH]c2ccccc12)C(=O)N[C@@H](Cc1ccc(O)cc1)C(=O)N[C@@H](CCCNC(=N)N)C(=O)NCC(=O)N[C@@H](CCCNC(=N)N)C(=O)N[C@@H](CC(C)C)C(=O)NCCOCCOCCNC(=O)CN1CCN(CC(=O)NCCOCCOCCN)CCN(CC(=O)NCCOCCOCCNC(=O)C[C@@H](O)[C@H](CC(C)C)NC(=O)[C@H](C)NC(=O)C[C@H](O)[C@H](CC(C)C)NC(=O)[C@@H](NC(=O)[C@@H](NC(=O)CC(C)C)C(C)C)C(C)C)CCN(CC(=O)NCCOCCOCCN)CC1` [HHY-327, AcWYRGRL-DOTA-Pepstatin A] (I: Ac-WYRGRL / II: Isovaleryl-VV[Sta]A[X2]; linker I:C-II:C via X3): the “inhibition of GAG release” value is listed as 41% in series [2] (24 hours after stimulation at pH 5.0) and “no differentiating effect” in series [2] (48 hours after stimulation at pH 5.0). Further, the “effect on acid-stimulated GAG release / degradation (FIG. 3)” value in series [2] (pH 5.0) was “very impressive effect”. In series [3], the solubility was over 5920 µg/mL. At Cathepsin D, the IC50 was found to be 2.1 nM.

Consider AcWYRGRL-DOTA-(Pepstatin A)3 [HHY-328], for which, in series [4], the “solubility in DMSO” value is reported as “only slightly soluble”.

The record behind these values is patent publication US20170050988A1, “DOTAM DERIVATIVES FOR THERAPEUTIC USE” (priority 2013, published 2017).
